B1: GST-Rad27 (natural protein, yeast, UniProt P26793 1-382, looked up)
chain: MGIKGLNAIISEHVPSAIRKSDIKSFFGRKVAIDASMSLYQFLIAVRQQDGGQLTNEAGETTSHLMGMFYRTLRMIDNGIKPCYVFDGKPPDLKSHELTKRSSRRVETEKKLAEATTELEKMKQERRLVKVSKEHNEEAQKLLGLMGIPYIIAPTEAEAQCAELAKKGKVYAAASEDMDTLCYRTPFLLRHLTFSEAKKEPIHEIDTELVLRGLDLTIEQFVDLCIMLGCDYCESIRGVGPVTALKLIKTHGSIEKIVEFIESGESNNTKWKIPEDWPYKQARMLFLDPEVIDGNEINLKWSPPKEKELIEYLCDDKKFSEERVKSGISRLKKGLKSGIQGRLDGFFQVVPKTKEQLAAAAKRAQENKKLNKNKNKVTKGRR

Legend:
Test in all cases: cell-based or functional assay
[1] = target: T1, Mus81_(Δ21–22) of Mus81_(Δ21–22)–Mms4_(Δ40N) (S. cerevisiae, UniProt Q04149 1-632, Δ21–22)
T1 sequence (looked up): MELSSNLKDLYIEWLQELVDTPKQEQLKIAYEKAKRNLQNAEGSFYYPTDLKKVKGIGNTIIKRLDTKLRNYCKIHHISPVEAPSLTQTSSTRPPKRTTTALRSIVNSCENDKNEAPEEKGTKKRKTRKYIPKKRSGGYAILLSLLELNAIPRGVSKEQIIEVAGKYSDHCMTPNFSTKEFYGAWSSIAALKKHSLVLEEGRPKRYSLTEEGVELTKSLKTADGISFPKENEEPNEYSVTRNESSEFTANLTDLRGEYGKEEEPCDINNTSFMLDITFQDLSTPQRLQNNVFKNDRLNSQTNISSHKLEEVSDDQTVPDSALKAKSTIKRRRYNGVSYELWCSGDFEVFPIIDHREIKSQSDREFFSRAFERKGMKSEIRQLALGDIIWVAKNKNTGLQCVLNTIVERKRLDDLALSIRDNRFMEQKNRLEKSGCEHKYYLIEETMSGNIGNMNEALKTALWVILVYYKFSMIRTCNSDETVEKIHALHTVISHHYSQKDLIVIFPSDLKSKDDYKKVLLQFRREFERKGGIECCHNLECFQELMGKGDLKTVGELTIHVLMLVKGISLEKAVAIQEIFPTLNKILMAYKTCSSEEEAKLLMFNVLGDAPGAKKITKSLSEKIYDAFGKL

[2] = target: T2, Mus81_(Δ21–24) of Mus81_(Δ21–24)–Mms4_(Δ40N) (S. cerevisiae, UniProt Q04149 1-632, Δ21–24)
T2 sequence (looked up): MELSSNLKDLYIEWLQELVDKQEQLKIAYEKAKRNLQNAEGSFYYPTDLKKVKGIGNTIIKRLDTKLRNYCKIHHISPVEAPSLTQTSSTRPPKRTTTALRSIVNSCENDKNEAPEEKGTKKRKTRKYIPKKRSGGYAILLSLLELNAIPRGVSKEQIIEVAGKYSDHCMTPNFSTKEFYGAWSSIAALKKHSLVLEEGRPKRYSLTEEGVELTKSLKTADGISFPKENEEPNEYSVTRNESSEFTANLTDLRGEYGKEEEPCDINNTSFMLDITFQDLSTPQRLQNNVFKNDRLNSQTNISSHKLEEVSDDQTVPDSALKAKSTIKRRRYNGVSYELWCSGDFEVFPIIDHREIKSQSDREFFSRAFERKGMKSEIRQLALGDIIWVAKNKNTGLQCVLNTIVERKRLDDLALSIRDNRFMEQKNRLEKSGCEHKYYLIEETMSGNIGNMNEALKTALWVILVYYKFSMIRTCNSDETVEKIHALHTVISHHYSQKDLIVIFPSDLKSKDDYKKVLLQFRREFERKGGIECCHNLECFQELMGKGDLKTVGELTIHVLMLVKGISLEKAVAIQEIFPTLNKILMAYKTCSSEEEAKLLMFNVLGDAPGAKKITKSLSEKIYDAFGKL

GST-Rad27 = target: B1

B1
extent of stimulation by Rad27 of the endonuclease activity of Mus81_(Δ21–22)–Mms4_(Δ40N) on 3′F substrate, over increasing amounts of Rad27 (∼5–12-fold) [1]: ~12 fold | extent of stimulation by Rad27 of the endonuclease activity of Mus81_(Δ21–24)–Mms4_(Δ40N) on 3′F substrate, over increasing amounts of Rad27 (∼3–6-fold) [2]: ~6 fold

B2: Mms4_(Δ40N) (domain or fragment, budding yeast, UniProt P38257 41-691, looked up)
chain: ECKRAHVSSAEMIPSSPQRKSVSNDVENVDLNKSIELSAPFFQDISISKLDDFSTTVNSIIDSSLRNENNAKGNAKKLLDDLISDEWSADLESSGKKHNKSQYNLRDIAEKWGVQSLKNPEPIAVDCEYKTQGIGKTNSDISDSPKSQIGAADILFDFPLSPVKHENPTEEKHNSIANENSSPDNSLKPAGKQNHGEDGTSMAKRVYNKGEDEQEHLPKGKKRTIALSRTLINSTKLPDTVELNLSKFLDSSDSITTDVLSTPAKGSNIVRTGSQPIFSNANCFQEAKRSKTLTAEDPKCTKNTAREVSQLENYIAYGQYYTREDSKNKIRHLLKENKNAFKRVNQIYRDNIKARSQMIIEFSPSLLQLFKKGDSDLQQQLAPAVVQSSYNDSMPLLRFLRKCDSIYDFSNDFYYPCDPKIVEENVLILYYDAQEFFEQYTSQKKELYRKIRFFSKNGKHVILILSDINKLKRAIFQLENEKYKARVEQRLSGTEEALRPRSKKSSQVGKLGIKKFDLEQRLRFIDREWHVKIHTVNSHMEFINSLPNLVSLIGKQRMDPAIRYMKYAHLNVKSAQDSTETLKKTFHQIGRMPEMKANNVVSLYPSFQSLLEDIEKGRLQSDNEGKYLMTEAVEKRLYKLFTCTDPNDTIE
stimulation of Rad27 (0.1 fmol) cleavage of 5′DF substrate by the Mus81–Mms4_(Δ40N) and Mus81_(Δ120N)–Mms4_(Δ40N) complexes (0, 25, 50 fmol; ∼2–4 fold told of the Mus81 complexes) (GST-Rad27): 2 to 4 fold

B3: Mms4 of the wild-type Mus81–Mms4 complex (natural protein, budding yeast, UniProt P38257 1-691, looked up)
chain: MSQIVDFVEDKDSRNDASIQIIDGPSNVEIIALSESMDQDECKRAHVSSAEMIPSSPQRKSVSNDVENVDLNKSIELSAPFFQDISISKLDDFSTTVNSIIDSSLRNENNAKGNAKKLLDDLISDEWSADLESSGKKHNKSQYNLRDIAEKWGVQSLKNPEPIAVDCEYKTQGIGKTNSDISDSPKSQIGAADILFDFPLSPVKHENPTEEKHNSIANENSSPDNSLKPAGKQNHGEDGTSMAKRVYNKGEDEQEHLPKGKKRTIALSRTLINSTKLPDTVELNLSKFLDSSDSITTDVLSTPAKGSNIVRTGSQPIFSNANCFQEAKRSKTLTAEDPKCTKNTAREVSQLENYIAYGQYYTREDSKNKIRHLLKENKNAFKRVNQIYRDNIKARSQMIIEFSPSLLQLFKKGDSDLQQQLAPAVVQSSYNDSMPLLRFLRKCDSIYDFSNDFYYPCDPKIVEENVLILYYDAQEFFEQYTSQKKELYRKIRFFSKNGKHVILILSDINKLKRAIFQLENEKYKARVEQRLSGTEEALRPRSKKSSQVGKLGIKKFDLEQRLRFIDREWHVKIHTVNSHMEFINSLPNLVSLIGKQRMDPAIRYMKYAHLNVKSAQDSTETLKKTFHQIGRMPEMKANNVVSLYPSFQSLLEDIEKGRLQSDNEGKYLMTEAVEKRLYKLFTCTDPNDTIE
stimulation of Rad27 (0.1 fmol) cleavage of 5′DF substrate by the Mus81–Mms4 complex (0, 25, 50 fmol; ∼2–4 fold told of the Mus81 complexes) (GST-Rad27): 2 to 4 fold
